From US9962427B2, “Treatment of right ventricular dysfunction due to pressure overload” (OTTAWA HOSPITAL RESEARCH INSTITUTE, priority 2016, dated 2018)

Columns and labels:
Format in all cases: cell-based
[1] = system: primary neonatal cardiomyocytes; test: In vitro reversion of cardiomyocyte hypertrophy after removal of stimulus; details: for myocyte hypertrophy (cell area) after removal of stimulus: 2 day treatment, then 4 days serum-free media (Day 6); for cardiomyocyte cell size after 2 days of stimulation compared to control: PE 100 μM or hCT1 0.5 nM, Day 2
Protocol: FIGS. 2A and 2B. hCT1 induces physiologic adaptive compensation in vitro with reversion to a normal cardiomyocyte phenotype upon removal of hCT1 stimulation.
The morphological effects of CT-1 in an in vitro reversion setting (FIGS. 2A and 2B) were explored. Primary neonatal cardiomyocytes were stimulated for 2 days with phenylephrine (PE, 100 μM) or hCT1 (0.5 nM) followed by removal of the stimulus for 4 days: i.e. replenished with serum-free (SF) media. Cells were imaged at Day 0 and Day 2 of stimulation; and at Day 6 (4 days post-treatment). […] The population frequencies of L:W ratios of cardiomyocytes stimulated as above were examined (FIG. 2B). […] However, upon treatment with CT-1, only ˜20% of cardiomyocytes display a L:W ratio of 1.0 to 2.0 with the remaining cardiomyocytes showing an increased shift between 3.0 and 9.0 indicating eccentric growth. […] These observations indicate that although there is not complete penetrance of the eccentric growth (presumably due to the dosage and timing of CT-1 stimulation used), CT-1 causes an eccentric and reversible cardiomyocyte growth similar to what is seen during RV adaptive compensation, which is distinct from the concentric growth observed with PE which models pathological hypertrophic changes.

[2] = system: STAT3; test: STAT3 luciferase reporter in cardiomyocytes; details: 30 minutes up to 24 hours; hCT1 0.5 nM, PE 100 μM, PAC-1 25 μM
Protocol: (§1) FIGS. 6A, 6B, and 6C. Stimulation with hCT1 causes sustained activation of NF-κB and Stat3 with limited activation of Mef2, as well as limited Nfat activation; the latter two indices are distinct expression patterns from pathologic hypertrophic stimulation. FIG. 6A Primary neonatal cardiomyocytes were transfected with luciferase reporter plasmids (NF-κB or Mef2), as indicators of hypertrophic activity. Luciferase activity was measured after treatments for 24 hrs with: hCT1 (0.5 nM), PE (100 μM), or procaspase 3 activating compound 1, PAC-1 (25 μM) (left). Treatments at early timepoints (30 min, 1 hr, and 3 hr) were also conducted for hCT1 (right). FIG. 6B Primary neonatal cardiomyocytes were transfected with a luciferase reporter plasmid for Stat3. Luciferase activity was measured after treatments for 24 hrs with: hCT1 (0.5 nM), PE (100 μM), or procaspase 3 activating compound 1, PAC-1 (25 μM) (left) and at earlier time points (right). FIG. 6C Primary neonatal cardiomyocytes were infected with a luciferase-based Nfat reporter Adenovirus (Nfat-AdV). Luciferase activity was measured after treatments for 24 hrs with: hCT1 (0.5 nM), PE (100 μM), or procaspase 3 activating compound 1, PAC-1 (25 μM) (left) and at earlier time points (right)
Moreover, it is reasonable to assume that CT-1 may moderate the activity of additional transcription factors, which further contribute to the adaptive compensation phenotype. As such, Applicants decided to test the hypothesis that STAT3 (Signal transducer and activator of transcription 3) dependent transcriptional activity is a specific determinant for CT-1 induced physiologic adaptive compensation. STAT3 phosphorylation and transcriptional activation is a response that is common to the Interleukin-6 cytokine family (of which CT-1 is a member), which is mediated through binding and activation of a JAK/gp130 (Janus kinase/[…]) receptor complex.

[3] = system: Vascular Endothelial Growth Factor—VEGF; test: VEGF expression by immunofluorescence in primary cardiomyocytes; details: 24 hours; hCT1 0.5 nM, PE 100 μM, PAC-1 25 μM
Protocol: FIGS. 8A and 8B. […] FIG. 8B Microarray analysis of primary cardiomyocytes stimulated with hCT1 (0.5 nM) for 24 hours.
Applicant explored the role of CT-1 as a pro-angiogenic factor in the adaptive hypertrophic response. Physiologic cardiac adaptive compensation is associated with an increase in capillary density, whereas pathologic response is characterized by a decline or no change at all. Importantly, the compensatory vascular growth/angiogenesis that occurs during physiologic adaptive compensation is permissive for the increased workload that accompanies physiologic adaptive compensation. Despite this adaptation, little information exists regarding the mechanisms that match the demand for angiogenesis to the beneficial form of myocardial growth. The rapid in vitro and in vivo adaptive compensation in response to CT-1 supports a hypothesis that the cardiomyocyte itself may act in a paracrine fashion, to signal and promote angiogenesis. To address this conjecture, Applicant examined whether CT-1 treated primary cardiomyocytes produced vascular endothelial growth factor (VEGF), an angiogenic factor known to be produced and secreted by cardiomyocytes. Primary cardiomyocytes were incubated with control serum-free media (Ctrl, SF media) or stimulated with hCT1 (0.5 nM), PE (100 μM), or PAC-1 (25 μM) for 24 hours. Immunofluorescence was used to detect α-actinin, Vascular Endothelial Growth Factor—VEGF, and nuclei. […] Based on these observations Applicant next conducted a comparative gene expression analysis of control (non-stimulated) versus CT-1 treated (0.5 nM, 24 hours) primary cardiomyocytes, using the Affymetrix Rat gene 2.0ST array.

[4] = system: NFAT; test: NFAT luciferase reporter adenovirus (Nfat-AdV) in cardiomyocytes
Protocol: as §1
Applicants tested this supposition by infecting cardiomyocytes with an NFAT luciferase reporter linked to an Adenovirus (AdV) backbone (FIG. 6C). Cardiomyocytes were infected at a […] (MOI) of 20 with Nfat-AdV for 24 hours prior to stimulation with hCT1 (0.5 nM), PE (100 μM), or procaspase 3 activating compound 1, PAC-1 (25 μM). As an initial positive control, co-infection of NFAT-AdV with activated Calcineurin-AdV (a phosphatase and potent activator of NFAT signalling) caused a significant increase in NFAT activity (n=4; *, P<0.05). […] Although the exact mechanism of inhibition is unknown, Applicant has shown CT-1 engaging a PI3K signalling pathway and it would be reasonable to postulate that phosphorylation of NFAT by CT-1/PI3K signalling would limit NFAT activity.

Question: With `CNC[C@H](O)c1cccc(O)c1` [PE, Phenylephrine] as the molecule, how does the “myocyte hypertrophy (cell area) after removal of stimulus” value [1] read?
Answer: Its value is “remained hypertrophied”.

Question: And the “cardiomyocyte cell size after 2 days of stimulation compared to control” value [1]?
Answer: The value was “increase in cardiomyocyte cell size”.

Question: What about the STAT3 activation [2] of the same molecule?
Answer: Its STAT3 activation is “only minimal (if any) activation”.

Question: What about the “VEGF expression (immunofluorescence)” value [3] of the same molecule?
Answer: Its value is “less VEGF expression”.

Question: What about the “NFAT activity compared to baseline levels” value ([4]; as early as 3 hours, up to 24 hours, PE 100 μM, PAC-1 25 μM) of the same molecule?
Answer: The value was “significant increase of NFAT activity”.

B1: hCT1: Recombinant human CT1 protein; 201 amino acid sequence, GenBank Accession Nos AAD12173 and AAA85229 (human) (protein, UniProt Q16619 1-201, looked up)
Cardiotrophin-1: MSRREGSLEDPQTDSSVSLLPHLEAKIRQTHSLAHLLTKYAEQLLQEYVQLQGDPFGLPSFSPPRLPVAGLSAPAPSHAGLPVHERLRLDAAALAALPPLLDAVCRRQAELNPRAPRLLRRLEDAARQARALGAAVEALLAALGAANRGPRAEPPAATASAASATGVFPAKVLGLRVCGLYREWLSRTEGDLGQLLPGGSA
Question: How did the “myocyte hypertrophy (cell area) after removal of stimulus” value [1] turn out when B1 was run?
Answer: Its value is “reversion of the myocyte hypertrophy”.

Question: And the “L:W ratio population frequency after removing stimulation” value ([1]; 4 days after removal)?
Answer: The value was “reversion of L:W ratio occurs”.

Question: And the “cardiomyocyte cell size after 2 days of stimulation compared to control” value [1]?
Answer: Its value is “increase in cardiomyocyte cell size”.

Question: What about the “proportion of cardiomyocytes with L:W ratio of 1.0 to 2.0” value ([1]; upon treatment (2 days), control ~60%) of the same molecule?
Answer: The value was about 20%.

Question: What about the STAT3 activation [2] of the same molecule?
Answer: The STAT3 activation was “significant STAT3 activation”.

Question: And the “VEGF expression (immunofluorescence)” value [3]?
Answer: The value was “rapid increase in the expression of VEGF”.

Question: What about the “NFAT activity compared to baseline levels, CT-1 alone” value ([4]; 30 minutes, 1 hour, and 3 hours) of the same molecule?
Answer: Its value is “slight, yet significant, decrease in NFAT activity”.

Question: What about the “NFAT activity after CT-1 pre-treatment compared to PE or PAC-1 alone” value ([4]; 3 hours and 24 hours) of the same molecule?
Answer: Its value is “significantly decreased NFAT activity”.
